Data as given in patent publication US20230242590A1.
Where two headings read alike, the source gives them in different places.

Columns and labels:
Assay in all cases: UV peptide exchange + HLA class I ELISA
HLA-A*01:01 (human) = details: remark: other sources report otherwise
HLA-B*07:02 (human) = target: HLA-B*07:02 (human)
HLA-A*24:02 (human) = target: HLA-A*24:02 (human)
HLA-B*08:01 (human) = details: remark: other sources report otherwise
HLA-A*03:01 (human) = target: HLA-A*03:01 (human)
HLA-A*11:01 (human) = target: HLA-A*11:01 (human)
HLA-A*02:01 (human) = target: HLA-A*02:01 (human)
[1] = remark: other sources report otherwise

B1: p124-133 (peptide)
peptide: PLDKGIKPYY
modifications: not checked
Bindings% (of positive control) (HLA-A*01:01 (human)): 26.7%

B2: x58-66 (peptide)
peptide: LPVCAFSSA
modifications: not checked
Bindings% (of positive control) (HLA-B*07:02 (human); [1]): 52.8%

B3: x67-75 (peptide)
peptide: GPCALRFTS
modifications: not checked
Bindings% (of positive control) (HLA-B*07:02 (human)): 26.9%

B4: p649-658 (peptide)
peptide: CGYPALMPLY
modifications: not checked
Bindings% (of positive control) (HLA-A*24:02 (human)): 38.1%

B5: x52-60 (peptide)
peptide: HLSLRGLPV
modifications: not checked
Bindings% (of positive control) (HLA-B*08:01 (human)): 79.8%

B6: p697-706 (peptide)
peptide: VFADATPTGW
modifications: not checked
Bindings% (of positive control) (HLA-A*24:02 (human)): 40.4%

B7: x103-111 (peptide)
peptide: MSTTDLEAY
modifications: not checked
Bindings% (of positive control) (HLA-A*01:01 (human)): 30.2%

B8: p829-837 (peptide)
peptide: RVHFASPLH
modifications: not checked
Bindings% (of positive control) (HLA-A*03:01 (human)): 68.8%
Bindings% (of positive control) (HLA-A*11:01 (human)): 39.5%

B9: x105-113 (peptide)
peptide: TTDLEAYFK
modifications: not checked
Bindings% (of positive control) (HLA-A*01:01 (human)): 41.7%

B10: p167-175 (peptide)
peptide: SFCGSPYSW
modifications: not checked
Bindings% (of positive control) (HLA-A*24:02 (human)): 84%

B11: x104-113 (peptide)
peptide: STTDLEAYFK
modifications: not checked
Bindings% (of positive control) (HLA-A*11:01 (human); [1]): 98.7%

B12: x92-100 (peptide)
peptide: VLHKRTLGL
modifications: not checked
Bindings% (of positive control) (HLA-B*08:01 (human)): 60.8%

B13: p650-658 (peptide)
peptide: GYPALMPLY
modifications: not checked
Bindings% (of positive control) (HLA-A*24:02 (human)): 42.7%

B14: p407-415 (peptide)
peptide: FAVPNLQSL
modifications: not checked
Bindings% (of positive control) (HLA-A*02:01 (human)): 33.3%

B15: x15-23 (peptide)
peptide: VLCLRPVGA
modifications: not checked
Bindings% (of positive control) (HLA-A*02:01 (human); [1]): 31.7%

B16: p404-412 (peptide)
peptide: WPKFAVPNL
modifications: not checked
Bindings% (of positive control) (HLA-B*07:02 (human); [1]): 70.5%

B17: p723-731 (peptide)
peptide: LPIHTAELL
modifications: not checked
Bindings% (of positive control) (HLA-B*07:02 (human); [1]): 32.3%
